Measurements as given in US11653679B2, “High-purity steviol glycosides” (PureCircle Sdn Bhd, priority 2014, dated 2023).
Numbering of substitutions follows the chain as printed.

B1: UGT76G1var52: UGT76G1 variant, mutations D301N_I373L_F377C_I407V (protein, UniProt Q6VAB4 1-458, looked up, variant D301N I373L F377C I407V)
UDP-glycosyltransferase 76G1: MENKTETTVRRRRRIILFPVPFQGHINPILQLANVLYSKGFSITIFHTNFNKPKTSNYPHFTFRFILDNDPQDERISNLPTHGPLAGMRIPIINEHGADELRRELELLMLASEEDEEVSCLITDALWYFAQSVADSLNLRRLVLMTSSLFNFHAHVSLPQFDELGYLDPDDKTRLEEQASGFPMLKVKDIKSAYSNWQILKEILGKMIKQTKASSGVIWNSFKELEESELETVIREIPAPSFLIPLPKHLTASSSSLLDHDRTVFQWLDQQPPSSVLYVSFGSTSEVDEKDFLEIARGLVNSKQSFLWVVRPGFVKGSTWVEPLPDGFLGERGRIVKWVPQQEVLAHGAIGAFWTHSGWNSTLESVCEGVPMLFSDCGLDQPLNARYMSDVLKVGVYLENGWERGEVANAIRRVMVDEEGEYIRQNARVLKQKADVSLMKGGSSYESLESLVSYISSL
B2: UGT76G1var62: UGT76G1 variant, mutations L243P_P272A_V394I_V396F (protein, UniProt Q6VAB4 1-458, looked up, variant L243P P272A V394I V396F)
UDP-glycosyltransferase 76G1: B1 UDP-glycosyltransferase 76G1 with L243P, P272A, N301D, L373I, C377F, V394I, V396F, V407I
B3: UGT76G1var58: UGT76G1 variant, mutations S357C_S375M_N409R_Q425E (protein, UniProt Q6VAB4 1-458, looked up, variant S357C S375M N409R Q425E)
UDP-glycosyltransferase 76G1: B1 UDP-glycosyltransferase 76G1 with N301D, S357C, L373I, S375M, C377F, V407I, N409R, Q425E
B4: UGT76G1var65: UGT76G1 variant, mutations A33G_A239V_P382M_Q425E (protein, UniProt Q6VAB4 1-458, looked up, variant A33G A239V P382M Q425E)
UDP-glycosyltransferase 76G1: B1 UDP-glycosyltransferase 76G1 with A33G, A239V, N301D, L373I, C377F, P382M, V407I, Q425E
B5: UGT76G1var4: UGT76G1 variant, mutations E224D_E231A_F265I (protein, UniProt Q6VAB4 1-458, looked up, variant E224D E231A F265I)
UDP-glycosyltransferase 76G1: B1 UDP-glycosyltransferase 76G1 with E224D, E231A, F265I, N301D, L373I, C377F, V407I
B6: UGT76G1var67: UGT76G1 variant, mutations E224D_F314S_S375R_Y397E (protein, UniProt Q6VAB4 1-458, looked up, variant E224D F314S S375R Y397E)
UDP-glycosyltransferase 76G1: B1 UDP-glycosyltransferase 76G1 with E224D, N301D, F314S, L373I, S375R, C377F, Y397E, V407I
B7: UGT76G1var68: UGT76G1 variant, mutations Q342K_G348P_I373L_Y397E (protein, UniProt Q6VAB4 1-458, looked up, variant Q342K G348P I373L Y397E)
UDP-glycosyltransferase 76G1: B1 UDP-glycosyltransferase 76G1 with N301D, Q342K, G348P, C377F, Y397E, V407I
B8: UGT76G1var53: UGT76G1 variant, mutations R334K_A352G_P382M_S389E (protein, UniProt Q6VAB4 1-458, looked up, variant R334K A352G P382M S389E)
UDP-glycosyltransferase 76G1: B1 UDP-glycosyltransferase 76G1 with N301D, R334K, A352G, L373I, C377F, P382M, S389E, V407I
B9: UGT76G1var54: UGT76G1 variant, mutations E229A_T284L_R334K_Q342E (protein, UniProt Q6VAB4 1-458, looked up, variant E229A T284L R334K Q342E)
UDP-glycosyltransferase 76G1: B1 UDP-glycosyltransferase 76G1 with E229A, T284L, N301D, R334K, Q342E, L373I, C377F, V407I
B10: UGT76G1var71: UGT76G1 variant, mutations I295M_V300A_K393G_Q432E (protein, UniProt Q6VAB4 1-458, looked up, variant I295M V300A K393G Q432E)
UDP-glycosyltransferase 76G1: B1 UDP-glycosyltransferase 76G1 with I295M, V300A, N301D, L373I, C377F, K393G, V407I, Q432E
B11: UGT76G1var55: UGT76G1 variant, mutations I295M_Q342E_V366I_N409R (protein, UniProt Q6VAB4 1-458, looked up, variant I295M Q342E V366I N409R)
UDP-glycosyltransferase 76G1: B1 UDP-glycosyltransferase 76G1 with I295M, N301D, Q342E, V366I, L373I, C377F, V407I, N409R
B12: UGT76G1var77: UGT76G1 variant, mutations A239V_F265I_I295T_D301N_K393G (protein, UniProt Q6VAB4 1-458, looked up, variant A239V F265I I295T D301N K393G)
UDP-glycosyltransferase 76G1: B1 UDP-glycosyltransferase 76G1 with A239V, F265I, I295T, L373I, C377F, K393G, V407I
B13: UGT76G1var69: UGT76G1 variant, mutations S274G_I295T_I335V_L379A (protein, UniProt Q6VAB4 1-458, looked up, variant S274G I295T I335V L379A)
UDP-glycosyltransferase 76G1: B1 UDP-glycosyltransferase 76G1 with S274G, I295T, N301D, I335V, L373I, C377F, L379A, V407I
B14: UGT76G1var3: UGT76G1 variant, mutations I295T_S357C_V366I (protein, UniProt Q6VAB4 1-458, looked up, variant I295T S357C V366I)
UDP-glycosyltransferase 76G1: B1 UDP-glycosyltransferase 76G1 with I295T, N301D, S357C, V366I, L373I, C377F, V407I
B15: UGT76G1var72: UGT76G1 variant, mutations T284L_D301N_K303G_S375R (protein, UniProt Q6VAB4 1-458, looked up, variant T284L D301N K303G S375R)
UDP-glycosyltransferase 76G1: B1 UDP-glycosyltransferase 76G1 with T284L, K303G, L373I, S375R, C377F, V407I
B16: UGT76G1var60: UGT76G1 variant, mutations E231A_L243A_V279I_S357N (protein, UniProt Q6VAB4 1-458, looked up, variant E231A L243A V279I S357N)
UDP-glycosyltransferase 76G1: B1 UDP-glycosyltransferase 76G1 with E231A, L243A, V279I, N301D, S357N, L373I, C377F, V407I
B17: UGT76G1var74: UGT76G1 variant, mutations I295T_I373L_S375R_Y397Q_Q432E (protein, UniProt Q6VAB4 1-458, looked up, variant I295T I373L S375R Y397Q Q432E)
UDP-glycosyltransferase 76G1: B1 UDP-glycosyltransferase 76G1 with I295T, N301D, S375R, C377F, Y397Q, V407I, Q432E
B18: UGT76G1var56: UGT76G1 variant, mutations L246F_A352G_S357N_Q432E (protein, UniProt Q6VAB4 1-458, looked up, variant L246F A352G S357N Q432E)
UDP-glycosyltransferase 76G1: B1 UDP-glycosyltransferase 76G1 with L246F, N301D, A352G, S357N, L373I, C377F, V407I, Q432E
B19: UGT76G1var59: UGT76G1 variant, mutations I335V_K393G_V394I_Y397Q (protein, UniProt Q6VAB4 1-458, looked up, variant I335V K393G V394I Y397Q)
UDP-glycosyltransferase 76G1: B1 UDP-glycosyltransferase 76G1 with N301D, I335V, L373I, C377F, K393G, V394I, Y397Q, V407I
B20: UGT76G1var57: UGT76G1 variant, mutations S241I_T263S_L379G_A385T (protein, UniProt Q6VAB4 1-458, looked up, variant S241I T263S L379G A385T)
UDP-glycosyltransferase 76G1: B1 UDP-glycosyltransferase 76G1 with S241I, T263S, N301D, L373I, C377F, L379G, A385T, V407I
B21: UGT76G1var61: UGT76G1 variant, mutations I43V_F265I_Q266S_L379A (protein, UniProt Q6VAB4 1-458, looked up, variant I43V F265I Q266S L379A)
UDP-glycosyltransferase 76G1: B1 UDP-glycosyltransferase 76G1 with I43V, F265I, Q266S, N301D, L373I, C377F, L379A, V407I
B22: UGT76G1var73: UGT76G1 variant, mutations F22Y_D301N_R334H_Q342E_V396F (protein, UniProt Q6VAB4 1-458, looked up, variant F22Y D301N R334H Q342E V396F)
UDP-glycosyltransferase 76G1: B1 UDP-glycosyltransferase 76G1 with F22Y, R334H, Q342E, L373I, C377F, V396F, V407I
B23: UGT76G1var2: UGT76G1 variant, mutations S274G_T284I_L379G (protein, UniProt Q6VAB4 1-458, looked up, variant S274G T284I L379G)
UDP-glycosyltransferase 76G1: B1 UDP-glycosyltransferase 76G1 with S274G, T284I, N301D, L373I, C377F, L379G, V407I
B24: UGT76G1var70: UGT76G1 variant, mutations E224A_I295T_V300A_G348P (protein, UniProt Q6VAB4 1-458, looked up, variant E224A I295T V300A G348P)
UDP-glycosyltransferase 76G1: B1 UDP-glycosyltransferase 76G1 with E224A, I295T, V300A, N301D, G348P, L373I, C377F, V407I
B25: UGT76G1var64: UGT76G1 variant, mutations F22L_A239I_R334H_I407V (protein, UniProt Q6VAB4 1-458, looked up, variant F22L A239I R334H I407V)
UDP-glycosyltransferase 76G1: B1 UDP-glycosyltransferase 76G1 with F22L, A239I, N301D, R334H, L373I, C377F
B26: UGT76G1var63: UGT76G1 variant, mutations F314S_R334H_Q342K_L379G (protein, UniProt Q6VAB4 1-458, looked up, variant F314S R334H Q342K L379G)
UDP-glycosyltransferase 76G1: B1 UDP-glycosyltransferase 76G1 with N301D, F314S, R334H, Q342K, L373I, C377F, L379G, V407I
B27: UGT76G1var75: UGT76G1 variant, mutations F41L_A239I_Q266S_S375M_P382M (protein, UniProt Q6VAB4 1-458, looked up, variant F41L A239I Q266S S375M P382M)
UDP-glycosyltransferase 76G1: B1 UDP-glycosyltransferase 76G1 with F41L, A239I, Q266S, N301D, L373I, S375M, C377F, P382M, V407I
B28: UGT76G1var76: UGT76G1 variant, mutations F22Y_A239I_L246F_I295M_R334K (protein, UniProt Q6VAB4 1-458, looked up, variant F22Y A239I L246F I295M R334K)
UDP-glycosyltransferase 76G1: B1 UDP-glycosyltransferase 76G1 with F22Y, A239I, L246F, I295M, N301D, R334K, L373I, C377F, V407I
B29: UGT76G1var78: UGT76G1 variant, mutations V279I_V300A_V310I_I335V_S357C (protein, UniProt Q6VAB4 1-458, looked up, variant V279I V300A V310I I335V S357C)
UDP-glycosyltransferase 76G1: B1 UDP-glycosyltransferase 76G1 with V279I, V300A, N301D, V310I, I335V, S357C, L373I, C377F, V407I
B30: UGT76G1var66: UGT76G1 variant, mutations F265L_V310I_V366I_A385T (protein, UniProt Q6VAB4 1-458, looked up, variant F265L V310I V366I A385T)
UDP-glycosyltransferase 76G1: B1 UDP-glycosyltransferase 76G1 with F265L, N301D, V310I, V366I, L373I, C377F, A385T, V407I

Assay: Directed evolution of UGT76G1, Rebaudioside D to Rebaudioside M, round 1 (Example 26)
Format: biochemical
Conditions: 100 μL fresh lysate, 0.5 mM Rebaudioside D, 30° C., pH 7.2
How it was run: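 Conversion and initial rate were determined by HPLC with CAD detection on samples taken at 2, 4, 7 and 24 h. Reactions ran at 30 °C in 50 mM phosphate buffer pH 7.2 with lysate, Rebaudioside D (0.5 mM), UDP-glucose (2.5 mM) and MgCl2 (3 mM).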

Molecule | initial rate [Reb M area/min] | conversion Reb D to Reb M after 24 h [%]
B1 | 4.6E+06 | 
B2 | 3.4E+04 | 0.1
B3 | 2.2E+06 | 7.5
B4 | 3.3E+05 | 1.2
B5 | 8.6E+06 | 
B6 | −5.6E+05 | −2.1
B7 | −1.1E+05 | −1.4
B8 | 4.1E+06 | 9.3
B9 | 4.3E+05 | 0.7
B10 | 2.1E+07 | 
B11 | 2.2E+05 | 1.0
B12 | 4.4E+05 | 1.9
B13 | 8.3E+06 | 
B14 | 1.6E+06 | 9.6
B15 | 9.1E+06 | 
B16 | 9.5E+04 | 0.5
B17 | 9.6E+04 | 0.6
B18 | 4.1E+04 | 0.4
B19 | 2.7E+07 | 33.0
B20 | 1.5E+05 | 0.8
B21 | 2.0E+06 | 6.4
B22 | 8.7E+05 | 0.8
B23 | 4.7E+07 | 
B24 | 8.4E+06 | 24.0
B25 | 3.1E+04 | 0.3
B26 | 1.2E+06 | 3.4
B27 | −1.3E+05 | 0.8
B28 | 7.2E+05 | 2.6
B29 | 8.2E+05 | 3.2
B30 | 3.7E+05 | 0.8
